Experiments:
MS2 coat protein [1] = test: apparent KD of MS2 coat protein; designed switch direction (-1 OFF switch, 1 ON switch): 1; higher = weaker reporter binding; details: Eterna round: R98
Description: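 RNA-MaP: designed FMN/MS2 RNA switches (84 nt design region) are transcribed on-chip within common flanks and titrated with SNAP-549-labelled MS2 coat protein (about 1-3000 nM) in 100 mM Tris pH 7.5, 80 mM KCl, 4 mM MgCl2, without or with 200 uM FMN. Median apparent KD per design; activation ratio = KD,OFF / KD,ON.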

MS2 coat protein [2] = test: apparent KD of MS2 coat protein, switch ON state; designed switch direction (-1 OFF switch, 1 ON switch): 1; higher = weaker reporter binding; details: FMN input: 0 or 200 uM; Eterna round: R93 (includes R88 designs)
How it was run: (§1)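 Designed RNA switches were made by on-chip transcription from Illumina sequencing clusters and then titrated with SNAP-549-labelled MS2 coat protein. Twofold steps ran from 0.7 or 1.5 nM to 3 µM, each lasting 0.8–1.5 h early and 10–20 min late, in 100 mM Tris-HCl pH 7.5, 80 mM KCl, 4 mM MgCl2, without or with constant ligand. Apparent KD is the per-design median of normalised cluster binding-curve fits.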

MS2 coat protein [3] = test: apparent KD of MS2 coat protein, switch OFF state (with FMN for OFF switches, without FMN for ON switches); designed switch direction (-1 OFF switch, 1 ON switch): 1; higher = weaker reporter binding; details: FMN input: 0 or 200 uM; Eterna round: R93 (includes R88 designs)
How it was run: as §1

Row | Sequence | apparent KD of MS2 coat protein (MS2 coat protein [1]; input ligand: FMN 200 uM) | apparent KD of MS2 coat protein (MS2 coat protein [1]; input ligand: none) | apparent KD of MS2 coat protein (MS2 coat protein [2]) | apparent KD of MS2 coat protein (MS2 coat protein [3])
1 | GGAUCCAACACAGGAUAUGCUGGACUUUGUCCAGCAGAAGGGUGAAACAUGAGGAUCACCCAUGUAUGGAUCCAUAUAUUUAAU [Denovo 32] | 245 nM | 629 nM |  | 
2 | CCUGACACUUGAGGAUAUGCUCAGGAUAACUGAGCAGAAGGCAGGAAAACCUGAGGAUCACCCAGGUAAGUCAGGAAUAAUAAA [Same State NG1 - A3C, U17G Submission 3B] | 15.8 nM | 21.7 nM |  | 
3 | AGCGGUAGGACAGGAUAUGGUGACUUCAAGCGGCCAGAAGGGUCCCGACAUGAGGAUCACCCAUGUCUUCCAGGCAGGGAGCGC [Teanisradi] | 710 nM | 234 nM |  | 
4 | UGAUCGCUUGGAGGAUAUCCAACUAUCCUAGUUGGAGAAGGCCAAGCUACAGAGCUAAGCUUGGAAGUCACUUCGGAUCAACAC [pwkr ssNG1 F9.4.1] | 65.5 nM | 32.7 nM |  | 
5 | GUAGCAUACAGAGGAUAUUCAAACCGGAAACGGACAUGAGGAUCACCCAUGUGGCGAAAGCCUAGGGAGAAGGCUGAAUGCUAC [Xeinanis 75 40] | 11.7 nM | 16 nM |  | 
6 | CCCUCCAGAAGAGGGACAUGAGGAUCACCCAUGUAGGCUGCACAGGAUAUCGAUCGGAGGCGGUACGAGAAGGGUGACGUCAUU [Atleis] | 48.7 nM | 26.9 nM |  | 
7 | AAAACAUGAGGAUCACCCAUGUAAAGAACGGUUAAUUAAAGUGAGGAUAUACAAAAUUUUAUAUAGUAGAAGGCACUGGGUACA [JR_SSNG3_Sub022] | 24.9 nM | 21.4 nM |  | 
8 | GCUUGCGACGCAGGAUAUGGGUGCCUGCACAUGAGCAUCAGCCAUGUUGAGGAACGGAUUACGUCUCAGAAGGGCGUGGCAGGC [United States 3 - Jieux - Same State NG 2] | 16.7 nM | 19.9 nM |  | 
9 | UAUUGCGCCGUAAAAUAACACAUGAGGAUCACCCAUGUGACACAGGAUAUAACCAGAUCAGAAAGUUAGAAGGGUGAAAACGGC [Edraed Mod 3 - Jieux - Same State NG3] | 20.4 nM | 30.8 nM |  | 
10 | GUCCCAGUCACAGGAUAUGGCUCCGUAAUGGAGCCAGAAGGGUGAUAUUCAGAAAACACACAUGAGGAUCACCCAUGUAAUAAA [Enindiinso] | 188 nM | 774 nM |  | 
11 | GACGAAAUCUUAGGAUAUGCUCAGGAAUACUGAGCAGAAGGAAGAUAUACCUGAGGAUCACCCAGGUUAAACUGGACGUCAAUA [Same State NG1 - A3C, U17G Submission 8I U7A] | 24.9 nM | 29.4 nM |  | 
12 | CCAGAUGUGUGAGGAUAUAGAGUGGAAUACACUCUAGAAGGUAUGUGAAAACAUGAGGAUCACCCAUGUGAUUAAUCAUCUGGA [SameState #2 NG1] | 27.9 nM | 24.4 nM |  | 
13 | CCGAUACAUGAGGAUCACCCAUGUUAGGUAGAACAAGGAUAUCUAGAUAGAUAAAAAUAUAGAGAAGGUGUAUAAC [JR_SS001_Sub208] |  |  | 17.1 nM | 26 nM
14 | GCAGAAGGUGCGGAGGAUCACCCUGUAAGGAUAUGCAUUAGCAAGGAUAUACAGAGGAUCACCCUGUAGAAGGUGCACUACUCA [pwkr2 ssNG3 DX.3] | 562 nM | 1970 nM |  | 
15 | AUAAAACAUGAGGAUCACCCAUGUCCGACAAAUCAAGGAUAUGAGAGCCAAACCAGGCUGUUAGAAGGUGAAAGAA [Edorlebere] |  |  | 154 nM | 182 nM
16 | AAGAAACAUGAGGAUCACCCAUGUAGAAAUAUGGGAGGAUAUACAAAGACGAAAGUCAAAGUAGAAGGCCUGAAAG [Mat - Same State 1 - Eli mod - 84] |  |  | 38.5 nM | 72.4 nM
17 | AAAAGACAUGAGGAUCACCCAUGUGAAAACGUAGGAGGAUAUGUCUGGAAAACAGACUGGACAGAAGGCCUGUGUC [SS1 - 33] |  |  | 24.4 nM | 36 nM

Row | Sequence | apparent KD of MS2 coat protein (MS2 coat protein [1]; input ligand: FMN 200 uM) | apparent KD of MS2 coat protein (MS2 coat protein [1]; input ligand: none) | apparent KD of MS2 coat protein (MS2 coat protein [2]) | apparent KD of MS2 coat protein (MS2 coat protein [3])
18 | AGGAGACAUGAGGAUCACCCAUGUGAGAAGAGGCGAGGAUAUCGAAAGAAAGAAGAGAAACGAGAAGGCGCGAGAG [salish99-SS1-025] |  |  | 28.4 nM | 37.4 nM
19 | AAAUAAAUGACUAAGGAUAUAUCAAAAGAAACAUGAGGAUCACCCAUGUAAUAAUAAAAAGGGUGAUAGAAGGUAGUCAACAAAC [74%, More Paria 4] |  |  | 24.6 nM | 115 nM
20 | UGAAGACAUGAGGAUCACCCAUGUGGGAAUAUGGGAGGAUAUACAAAGACGAGAGUCAGAGUAGAAGGCCUAGGAA [salish99-ss1-95] |  |  | 28.5 nM | 114 nM
21 | AACAAUCUAUCUGAGGAUAUCAUGUCAAAGACAUGAGGAUCACCCAUGUGUAGGAAAACUACAUAUGAGAAGGCAGAUAGAUUGA [SS2 :P - 598] |  |  | 610 nM | 103 nM
22 | CGAAAGGAGAGAGAGGAUAUCCAAAGGAAAACAUGAGGAUCACCCAUGUAGAAGGUAGGAGAUUGGGAGAAGGCUCAAGAGAGAC [salish99-ss2-148] |  |  | 24 nM | 48.2 nM
23 | AAAAAACAUGAGGAUCACCCAUGUGCAAAAUUCGCAGGAUAUUUCUCAAUUAAAUGAGAGGAAGAAGGGUGAAAAA [Nob's Hobby 27 - Jieux - Same State 1] |  |  | 21.5 nM | 99.3 nM
24 | AUAAAACAUGAGGAUCACCCAUGUAAAAAUAUGGGAGGAUAUACGAAAUAAAAUAAAUACGUAGAAGGCCUAAAAA [SS! MT 20] |  |  | 20.2 nM | 111 nM
25 | AAAAGACAUGAGGAUCACCCAUGUGAAAACGUGCGAGGAUAUGUAUGGAAACUAUACUGUACAGAAGGCGCAUGUC [SS1 - 81] |  |  | 19.9 nM | 24.3 nM
26 | AAAUAAAUGACUGAGGAUAUAUCGAUGAGUACAUGAGGAUCACCCAUGUGAUAAUAAAAAGGGUGGUAGAAGGUAGUCAACAAAC [Mod 14 of Pariah 4 by Hyphema in Round 1] |  |  | 185 nM | 150 nM
27 | AAAAAACAUGAGGAUCACCCAUGUGAGAACAUGGGAGGAUAUACGAGGACGAGAGUCAAGGUAGAAGGCCUAAAAG [Garnet 73] |  |  | 50.1 nM | 13.6 nM
28 | AAAAAACAUGAGGAUCACCCAUGUCCUCACGUGCGAGGAUAUGGAUGGAAACCAUACUGUCCAGAAGGCGCAUGUA [EteRNA is fun!] |  |  | 230 nM | 159 nM
29 | AAGAAACAUGAGGAUCACCCAUGUGAUAAUAUGGGAGGAUAUACGAAGACGAAAGACGAAGUAGAAGGCCUAUGAA [Garnet 45] |  |  | 46.9 nM | 83.3 nM
30 | GAAAAACAUGAGGAUCACCCAUGUGAUAAUAUGGGAGGAUAUACGAAGACGAAAGUCAAAGUAGAAGGCCUAAAAG [Garnet 36] |  |  | 57.5 nM | 81.7 nM
31 | AGAAAACAUGAGGAUCACCCAUGUAGAAAUAUGGGAGGAUAUACAAAGACGAAAGUCAGAGUAGAAGGCCUAAAAA [salish99-SS1-085] |  |  | 14.6 nM | 77.3 nM
32 | AAUAACAAAAGAAAGGAUAUAUAAACAGGAACAUGAGGAUCACCCAUGUGCCGCCAAGGCGGAUAAUAGAAGGUUCACAUGCAUA [Default title] |  |  | 47 nM | 25.3 nM
33 | UGGAGACAUGAGGAUCACCCAUGUGAGAAGAGGCGAGGAUAUCGAAAGAAAGAAGAGAAACGAGAAGGCGCGAGAU [salish99-SS1-034] |  |  | 21 nM | 27.6 nM
